According to patent US20090068195A1 (Pfizer, published 2009):

T1: FLAG-tagged NHP IL-13 (cynomolgus monkey, UniProt Q5I6E4 21-132 (Macaca thibetana entry), limits assumed)
T1 chain: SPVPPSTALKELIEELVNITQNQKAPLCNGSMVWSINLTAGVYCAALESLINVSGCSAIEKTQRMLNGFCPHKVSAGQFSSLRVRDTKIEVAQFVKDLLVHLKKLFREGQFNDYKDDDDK

B1: mouse monoclonal antibody MJ 2-7 (antibody, mouse IgG1, V domains shown)
VH: EVQLQQSGAELVKPGASVKLSCTGSGFNIKDTYIHWVKQRPEQGLEWIGRIDPANDNIKYDPKFQGKATITADTSSNTAYLQLNSLTSEDTAVYYCARSEENWYDFFDYWGQGTTLTVSS
VL: DVLMTQTPLSLPVSLGDQASISCRSSQSIVHSNGNTYLEWYLQKPGQSPKLLIYKVSNRFSGVPDRFSGSGSGTDFTLKISRVEAEDLGVYYCFQGSHIPYTFGGGTKLEIK
notes: also called mAb7.1.1; murine MJ2-7
B2: sIL-13Rα2-Fc (soluble human IL-13 receptor alpha 2 Fc fusion) (Fc fusion, UniProt Q14627 27-343, looked up, not shown: a dimerising Fc or GST)
chain: DTEIKVNPPQDFEIVDPGYLGYLYLQWQPPLSLDHFKECTVEYELKYRNIGSETWKTIITKNLHYKDGFDLNKGIEAKIHTLLPWQCTNGSEVQSSWAETTYWISPQGIPETKVQDMDCVYYNWQYLLCSWKPGIGVLLDTNYNLFYWYEGLDHALQCVDYIKADGQNIGCRFPYLEASDYKDFYICVNGSSENKPIRSSYFTFQLQNIVKPLPPVYLTFTRESSCEIKLKWSIPLGPIPARCFDYEIEIREDDTTLVTATVENETYTLKTTNETRQLCFVVRSKVNIYCSDDGIWSEWSDKQCWEGEDLSKKTLLR
B3: humanized 13.2v.2 (antibody, V domains shown)
VH: EVQLVESGGGLVQPGGSLRLSCAASGFTFISYAMSWVRQAPGKGLEWVASISSGGNTYYPDSVKGRFTISRDNAKNSLYLQMNSLRAEDTAVYYCARLDGYYFGFAYWGQGTLVTVSS
VL: DIQMTQSPSSLSASVGDRVTITCKASESVDNYGKSLMHWYQQKPGKAPKLLIYRASNLESGVPSRFSGSGSGTDFTLTISSLQPEDFATYYCQQSNEDPWTFGGGTKVEIK
notes: Humanized form of mAb13.2; also called h13.2v2; h13.2v.2
B4: humanized MJ2-7 v.2-11 (antibody, human IgG1, kappa, V domains shown)
VH: EVQLVESGGGLVQPGGSLRLSCAASGFNIKDTYIHWVRQAPGKGLEWIGRIDPANDNIKYDPKFQGRFTISADNAKNSAYLQMNSLRAEDTAVYYCARSEENWYDFFDYWGQGTLVTVSS
VL: DIQMTQSPSSLSASVGDRVTITCRSSQSIVHSNGNTYLEWYQQKPGKAPKLLIYKVSNRFSGVPSRFSGSGSGTDFTLTISSLQPEDFATYYCFQGSHIPYTFGGGTKVEIKR
B5: mouse monoclonal antibody C65 (antibody, V domains shown)
VH: QVQLKESGPGLVAPSQSLSITCTVSGFSLTGYGVNWVRQPPGKGLEWLGIIWGDGSTDYNSALKSRLIINKDNSKSQVFLKMNSLQTDDTARYFCARDKTFYYDGFYRGRMDYWGQGTSVTVSS
VL: DVQMIQSPSSLSASLGDIVTMTCQASQGTSINLNWFQQKPGKAPKLLIFGASNLEDGVPSRFSGSRYGTNFTLTISSLEDEDMATYFCLQHSYLPWTFGGGTKLEIK
B6: non-human primate (cynomolgus monkey) IL-13 (ligand)
chain: SPVPPSTALKELIEELVNITQNQKAPLCNGSMVWSINLTAGVYCAALESLINVSGCSAIEKTQRMLNGFCPHKVSAGQFSSLRVRDTKIEVAQFVKDLLVHLKKLFREGQFN
notes: the construct used in the assays is not described; Also used here for endogenous IL-13 of cynomolgus monkeys in the PK-PD fits; also called NHP IL-13; NHP-IL-13

Key:
[1] = target: B6; assay: cell-based or functional assay
[2] = target: native human IL-13 (human, UniProt P35225 34-146, limits assumed); assay: cell-based or functional assay
[3] = target: T2, NHP-IL-13 in a complex with immobilised hu IL-13Rα2-Fc (cynomolgus monkey; human, UniProt Q14627 27-343, limits assumed); assay: SPR (BIACORE): antibody injected over NHP IL-13 held by immobilised sIL-13Ralpha2-Fc
T2 construct: Pre-formed ligand-receptor complex on a CM5 chip; not shown: Fc part
Procedure: (§1) sIL-13RI2-Fc was directly coated onto a CM5 chip by standard amine coupling. NHP-IL-13 at 100 nM concentration was injected, and its binding to the immobilized IL-13RI2-Fc was detected by BIACORE3. An additional injection of 100 nM of anti IL-13 antibodies was added, and changes in binding were monitored.

[4] = target: T1, FLAG-tagged NHP IL-13; assay: competition ELISA: IL-13Ralpha1-Fc coated on the plate, FLAG-tagged NHP IL-13 added with rising MJ2-7; the blocked partner is IL-13Ralpha1-Fc
Procedure: (§2) The ability of MJ2-7 to inhibit binding of NHP IL-13 to IL-13RI1 and IL-13RI2 was tested by ELISA. Recombinant soluble forms of human IL-13RI1-Fc and IL-13RI2-Fc were coated onto ELISA plates. FLAG-tagged NHP IL-13 was added in the presence of increasing concentrations of MJ2-7. […] This provides a basis for the neutralization of IL-13 bioactivity by MJ2-7.

[5] = target: T1, FLAG-tagged NHP IL-13; assay: competition ELISA: IL-13Ralpha2-Fc coated on the plate, FLAG-tagged NHP IL-13 added with rising MJ2-7; the blocked partner is IL-13Ralpha2-Fc
Procedure: as §2

[6] = target: B6; assay: sandwich ELISA for total IL-13 in monkey serum, non-human primate IL-13 standards
Procedure: The concentrations of total IL-13 in serum samples obtained from hMJ2-7v.2-11-treated monkeys were determined using quantitative ELISA. […] After blocking and washing, the serum samples containing IL-13 from in vivo studies or the non-human primate IL-13 standards were incubated on the plate to allow for binding to the anti-IL-13 capture antibody. […] Streptavidin conjugated to HRP and the enzyme substrate 3,3′,5,5′-tetramethylbenzidine (TMB) peroxidase were added and optical densities were measured at 450 nm. The low limit of quantitation of the assay was approximately 0.15 ng/mL.

[7] = target: B2; assay: SPR (BIACORE): sIL-13Ralpha2-Fc amine-coupled to a CM5 chip, NHP IL-13 injected at 100 nM
Procedure: as §1

Sequence of native human IL-13 (P35225 other isoform, or with tags, fused parts or gaps limits assumed): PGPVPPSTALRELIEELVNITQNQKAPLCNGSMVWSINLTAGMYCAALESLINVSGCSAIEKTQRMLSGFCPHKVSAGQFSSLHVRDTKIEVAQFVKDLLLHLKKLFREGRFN

Binder: B1
CD23 expression, IC50 [1]: ~0.242 nM
STAT6 phosphorylation in HT-29 cells, IC50 [2]: 0.48 nM
STAT6 phosphorylation, IC50 [2]: ~0.293 nM
tenascin C production by BEAS-2B cells, IC50 [2]: ~0.1 nM
binding result [3]: no binding
IC50 (read off the curve) [4]: ~0.4 nM
IC50 (read off the curve) [5]: ~0.08 nM

Binder: B2
STAT6 phosphorylation in HT-29 cells, IC50 [2]: 0.33 nM

Binder: B3
binding result [6]: binds

Binder: B4
STAT6 phosphorylation in HT-29 cells, IC50 [2]: 0.52 nM

Binder: B5
fold decrease in monocyte CD23 expression, potency against MJ2-7 [1]: ~20 fold
fold decrease in STAT6 phosphorylation in HT-29 cells, potency against MJ2-7 [2]: ~20 fold

Binder: B6
binding result [7]: binds
